According to patent US20230127248A1 (AILERON THERAPEUTICS, published 2023):
Bridge positions count the residues as written; N and C are the ends. Square brackets hold non-standard residues; d marks the D form. Phe(4-F) = N[C@@H](Cc1ccc(F)cc1)C(=O)O; R8 = C=CCCCCCC[C@@](C)(N)C(=O)O; hLeu = CC(C)CC[C@H](N)C(=O)O; S5 = C=CCCC[C@](C)(N)C(=O)O; Nle = CCCC[C@H](N)C(=O)O

B1: SP-962 (peptidomimetic macrocycle derived from the MCL-1/BCL-XL/BCL-2-binding helix of BIM) (peptide)
peptide: Ac-IWIAQALR[R8][hLeu]GDAFN[S5]Y[Phe(4-F)]A-NH2
modifications: staple 9-16
SMILES: CC[C@H](C)[C@H](NC(C)=O)C(=O)N[C@@H](Cc1c[nH]c2ccccc12)C(=O)N[C@H](C(=O)N[C@@H](C)C(=O)N[C@@H](CCC(N)=O)C(=O)N[C@@H](C)C(=O)N[C@@H](CC(C)C)C(=O)N[C@@H](CCCNC(=N)N)C(=O)N[C@]1(C)CCCCCCC=CCCC[C@@](C)(C(=O)N[C@@H](Cc2ccc(O)cc2)C(=O)N[C@@H](Cc2ccc(F)cc2)C(=O)N[C@@H](C)C(N)=O)NC(=O)[C@H](CC(N)=O)NC(=O)[C@H](Cc2ccccc2)NC(=O)[C@H](C)NC(=O)[C@H](CC(=O)O)NC(=O)CNC(=O)[C@H](CCC(C)C)NC1=O)[C@@H](C)CC
notes: Stapled BIM BH3 peptide, 19 residues
B2: SP-809 (peptidomimetic macrocycle derived from the MCL-1/BCL-XL/BCL-2-binding helix of BIM) (peptide)
peptide: Ac-IWIAQALR[R8]IGDEFN[S5]YYARR-NH2
modifications: staple 9-16
SMILES: CC[C@H](C)[C@H](NC(C)=O)C(=O)N[C@@H](Cc1c[nH]c2ccccc12)C(=O)N[C@H](C(=O)N[C@@H](C)C(=O)N[C@@H](CCC(N)=O)C(=O)N[C@@H](C)C(=O)N[C@@H](CC(C)C)C(=O)N[C@@H](CCCNC(=N)N)C(=O)N[C@]1(C)CCCCCCC=CCCC[C@@](C)(C(=O)N[C@@H](Cc2ccc(O)cc2)C(=O)N[C@@H](Cc2ccc(O)cc2)C(=O)N[C@@H](C)C(=O)N[C@@H](CCCNC(=N)N)C(=O)N[C@@H](CCCNC(=N)N)C(N)=O)NC(=O)[C@H](CC(N)=O)NC(=O)[C@H](Cc2ccccc2)NC(=O)[C@H](CCC(=O)O)NC(=O)[C@H](CC(=O)O)NC(=O)CNC(=O)[C@H]([C@@H](C)CC)NC1=O)[C@@H](C)CC
notes: Stapled BIM BH3 peptide, 21 residues
B3: SP-815 (peptidomimetic macrocycle derived from the MCL-1/BCL-XL/BCL-2-binding helix of BIM) (peptide)
peptide: Ac-IWIAQALR[R8]IGDAFN[S5]YYA-NH2
modifications: staple 9-16
SMILES: CC[C@H](C)[C@H](NC(C)=O)C(=O)N[C@@H](Cc1c[nH]c2ccccc12)C(=O)N[C@H](C(=O)N[C@@H](C)C(=O)N[C@@H](CCC(N)=O)C(=O)N[C@@H](C)C(=O)N[C@@H](CC(C)C)C(=O)N[C@@H](CCCNC(=N)N)C(=O)N[C@]1(C)CCCCCCC=CCCC[C@@](C)(C(=O)N[C@@H](Cc2ccc(O)cc2)C(=O)N[C@@H](Cc2ccc(O)cc2)C(=O)N[C@@H](C)C(N)=O)NC(=O)[C@H](CC(N)=O)NC(=O)[C@H](Cc2ccccc2)NC(=O)[C@H](C)NC(=O)[C@H](CC(=O)O)NC(=O)CNC(=O)[C@H]([C@@H](C)CC)NC1=O)[C@@H](C)CC
notes: as for B1
B4: SP-810 (peptidomimetic macrocycle derived from the MCL-1/BCL-XL/BCL-2-binding helix of BIM) (peptide)
peptide: Ac-IWIAQELR[R8]IGDEFN[S5]YYARR-NH2
modifications: staple 9-16
SMILES: CC[C@H](C)[C@H](NC(C)=O)C(=O)N[C@@H](Cc1c[nH]c2ccccc12)C(=O)N[C@H](C(=O)N[C@@H](C)C(=O)N[C@@H](CCC(N)=O)C(=O)N[C@@H](CCC(=O)O)C(=O)N[C@@H](CC(C)C)C(=O)N[C@@H](CCCNC(=N)N)C(=O)N[C@]1(C)CCCCCCC=CCCC[C@@](C)(C(=O)N[C@@H](Cc2ccc(O)cc2)C(=O)N[C@@H](Cc2ccc(O)cc2)C(=O)N[C@@H](C)C(=O)N[C@@H](CCCNC(=N)N)C(=O)N[C@@H](CCCNC(=N)N)C(N)=O)NC(=O)[C@H](CC(N)=O)NC(=O)[C@H](Cc2ccccc2)NC(=O)[C@H](CCC(=O)O)NC(=O)[C@H](CC(=O)O)NC(=O)CNC(=O)[C@H]([C@@H](C)CC)NC1=O)[C@@H](C)CC
notes: as for B2
B5: SP68: Ac-LTF$r8AYWAQL$AANleA-NH2 (peptide)
peptide: Ac-LTF[R8]AYWAQL[S5]AA[Nle]A-NH2
modifications: staple 4-11
notes: i, i+7 stapled p53-derived macrocycle
B6: SP590 (Table 1b): Ac-LTF$rAYWAQL$A-NH2 (peptide)
peptide: Ac-LTF[R8]AYWAQL[S5]A-NH2
modifications: staple 4-11
SMILES: CC(=O)N[C@@H](CC(C)C)C(=O)N[C@H](C(=O)N[C@@H](Cc1ccccc1)C(=O)N[C@]1(C)CCCCCCC=CCCC[C@@](C)(C(=O)N[C@@H](C)C(N)=O)NC(=O)[C@H](CC(C)C)NC(=O)[C@H](CCC(N)=O)NC(=O)[C@H](C)NC(=O)[C@H](Cc2c[nH]c3ccccc23)NC(=O)[C@H](Cc2ccc(O)cc2)NC(=O)[C@H](C)NC1=O)[C@@H](C)O
B7: SP317: Ac-LTF$r8AYWAQL$AAAAAAa-NH2 (iso1) (peptide)
peptide: Ac-LTF[R8]AYWAQL[S5]AAAAAA[dA]-NH2
modifications: staple 4-11; also: single isomer iso1

target: T1, MCL-1 (Myeloid cell leukemia 1) (UniProt Q07820 172-327, limits assumed); experiment: IC50 against MCL-1, Table 4b; assay format not stated
T1 construct: Construct used in the IC50 assay is not described
T1 sequence (Q07820 172-327 limits assumed): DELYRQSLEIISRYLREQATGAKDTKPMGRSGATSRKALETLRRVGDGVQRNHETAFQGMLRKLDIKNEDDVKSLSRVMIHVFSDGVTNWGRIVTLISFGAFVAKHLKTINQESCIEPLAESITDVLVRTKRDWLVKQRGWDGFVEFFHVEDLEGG

IC50 [nM] | Binder
27 | B1
10.6 | B2
8.4 | B3

target: T2, BCL-XL (UniProt Q07817 1-209); experiment: IC50 against BCL-XL, Table 4b; assay format not stated
T2 construct: Construct used in the IC50 assay is not described; also called BCL-X1
T2 sequence (Q07817 1-209): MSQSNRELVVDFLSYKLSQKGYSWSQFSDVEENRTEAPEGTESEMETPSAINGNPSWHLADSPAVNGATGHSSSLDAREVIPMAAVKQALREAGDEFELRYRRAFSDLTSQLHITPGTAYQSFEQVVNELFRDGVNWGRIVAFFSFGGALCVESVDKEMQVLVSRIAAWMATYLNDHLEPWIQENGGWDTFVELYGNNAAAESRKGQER

IC50 [nM] | Binder
13 | B1
9.2 | B4
3.9 | B2
22.4 | B3

target: T3, MDM2 (human, UniProt Q00987 1-138, limits assumed); experiment: IC50 against MDM2; assay format and competitor not described with the table
T3 construct: also called HDM2; human double minute 2
T3 sequence (Q00987 1-138 limits assumed): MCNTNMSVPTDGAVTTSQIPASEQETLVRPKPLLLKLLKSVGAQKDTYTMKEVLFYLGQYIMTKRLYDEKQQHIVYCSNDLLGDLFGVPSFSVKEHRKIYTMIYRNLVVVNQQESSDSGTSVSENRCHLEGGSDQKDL

IC50 [nM] | Binder
29 | B5
141 | B6
10 | B7
